These results are taken from patent publication EP2506881B1.

Experiment [1] deals with Trop-2 (human) (UniProt P09758). Description: ELISA on Trop-2-expressing cell lines PC-3 and Calu-3, apparent KD. Background: In an ELISA, binding on a coated surface is turned into a signal by an enzyme label.
Experiment [2] shares this target. Description: cell-based or functional assay.
For experiment [3] the target is unchanged. Description: ELISA on Trop-2-expressing cell lines PC-3 and Calu-3.

Sequence of UniProt P09758 (P09758 27-323): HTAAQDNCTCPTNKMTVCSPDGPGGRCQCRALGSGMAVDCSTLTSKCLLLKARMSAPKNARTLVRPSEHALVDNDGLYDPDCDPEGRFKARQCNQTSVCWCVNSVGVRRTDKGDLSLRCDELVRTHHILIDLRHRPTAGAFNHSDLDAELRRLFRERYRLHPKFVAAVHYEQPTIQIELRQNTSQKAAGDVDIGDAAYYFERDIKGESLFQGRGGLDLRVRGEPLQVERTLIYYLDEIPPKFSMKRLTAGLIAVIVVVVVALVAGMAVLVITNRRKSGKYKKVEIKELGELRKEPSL

Regarding “2L-Rap(Q)-hRS7 (from UniProt P22069 1-104)”, the Kd with Trop-2 (human) [1] is 0.28 nM. For the same molecule, in the experiment with Trop-2 (human) [2], the EC50, MTS cell proliferation assay, Calu-3 cells is 8.5 nM; the EC50, MTS cell proliferation assay, MDA-MB-468 cells was determined as 3.8 nM; the EC50, MTS cell proliferation assay, ME-180 cells was determined as 1.5 nM; the EC50, MTS cell proliferation assay, T-47D cells worked out at 2 nM. In addition, the fold of apparent KD against hRS7 with Trop-2 (human) [3] was found to be 2 fold.

B1: humanized RS7 anti-Trop-2 antibody (hRS7 IgG) (antibody, INN chains, looked up, V domains shown)
VH: QVQLQQSGSELKKPGASVKVSCKASGYTFTNYGMNWVKQAPGQGLKWMGWINTYTGEPTYTDDFKGRFAFSLDTSVSTAYLQISSLKADDTAVYFCARGGFGSSYWYFDVWGQGSLVTVSS
VL: DIQLTQSPSSLSASVGDRVSITCKASQDVSIAVAWYQQKPGKAPKLLIYSASYRYTGVPDRFSGSGSGTDFTLTISSLQPEDFAVYYCQQHYITPLTFGAGTKVEIK
modifications: IgG
In the case of B1, the Kd with Trop-2 (human) [1] was 0.14 nM.
